Data set [1] deals with T1, recombinant human 14-3-3ζ protein (human), P63104.
T1 chain: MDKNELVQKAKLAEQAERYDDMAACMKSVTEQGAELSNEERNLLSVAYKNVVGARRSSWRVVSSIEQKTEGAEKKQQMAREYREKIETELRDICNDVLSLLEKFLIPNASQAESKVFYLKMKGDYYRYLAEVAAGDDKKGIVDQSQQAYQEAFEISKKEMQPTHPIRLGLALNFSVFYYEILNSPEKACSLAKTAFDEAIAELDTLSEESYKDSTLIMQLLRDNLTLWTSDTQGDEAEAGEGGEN
The experiment in a line: AUC; 'sedimentation equilibration analysis'; 25 μM 14-3-3ζ incubated with or without PTA at 25 °C for 8 h, centrifuged at 20 °C and 60000 rpm for 7 h; c(s) by SEDPHAT; monomer to dimer. To be noted: remark: other sources report otherwise.

Data set [2] deals with the molecule itself. The experiment in a line: cross-linking; 0.025 mM 14-3-3ζ incubated with or without PTA at 25 °C for 8 h, cross-linked with 1 mM disuccinimidyl suberate for 30 min (20 mM HEPES, 100 mM KCl, 1 mM dithiothreitol, pH 8.0), quenched with 50 mM Tris-HCl; SDS-PAGE with silver staining, and LC-MS.

Changes are numbered by the printed parent chain. Names and notes keep the numbering of the source.

B1: recombinant human 14-3-3ζ protein, P63104 1-245 (natural protein)
chain: T1 chain
Broadly, the stoichiometry N is the number of molecules, sites or subunits per partner or assembly. With B1, in data set [1], the percent dimer (with PTA) was found to be 77.5%, the percent dimer (without PTA) came to 69.1% and the stoichiometry N came to 2.

B2: 14-3-3ζ mutant (K158R) (natural protein, UniProt P63104 1-245, looked up)
chain: T1 chain with K158R
notes: 14-3-3ζ with K158R
On to B2, for which the binding result in data set [2] was “binds”.
